This is an account of results in patent US20220411531A1 (SUMGEN MAB BEIJING BIOTECH, published 2022).

The EC50 is the concentration needed to bring the measured effect to its halfway point. A high value points to weaker potency.

Residue numbers refer to the chain shown, from its start.

The target in test [1] is T1, AXL on the surfaces of human tumour cells (A549, MDA-MB-231, 786-O) (human, UniProt P30530 27-894).
T1 construct: Endogenous AXL on human tumour cell lines; The tie to the cell-line protein rests on this general definition only; also called cell surface antigen
T1 sequence: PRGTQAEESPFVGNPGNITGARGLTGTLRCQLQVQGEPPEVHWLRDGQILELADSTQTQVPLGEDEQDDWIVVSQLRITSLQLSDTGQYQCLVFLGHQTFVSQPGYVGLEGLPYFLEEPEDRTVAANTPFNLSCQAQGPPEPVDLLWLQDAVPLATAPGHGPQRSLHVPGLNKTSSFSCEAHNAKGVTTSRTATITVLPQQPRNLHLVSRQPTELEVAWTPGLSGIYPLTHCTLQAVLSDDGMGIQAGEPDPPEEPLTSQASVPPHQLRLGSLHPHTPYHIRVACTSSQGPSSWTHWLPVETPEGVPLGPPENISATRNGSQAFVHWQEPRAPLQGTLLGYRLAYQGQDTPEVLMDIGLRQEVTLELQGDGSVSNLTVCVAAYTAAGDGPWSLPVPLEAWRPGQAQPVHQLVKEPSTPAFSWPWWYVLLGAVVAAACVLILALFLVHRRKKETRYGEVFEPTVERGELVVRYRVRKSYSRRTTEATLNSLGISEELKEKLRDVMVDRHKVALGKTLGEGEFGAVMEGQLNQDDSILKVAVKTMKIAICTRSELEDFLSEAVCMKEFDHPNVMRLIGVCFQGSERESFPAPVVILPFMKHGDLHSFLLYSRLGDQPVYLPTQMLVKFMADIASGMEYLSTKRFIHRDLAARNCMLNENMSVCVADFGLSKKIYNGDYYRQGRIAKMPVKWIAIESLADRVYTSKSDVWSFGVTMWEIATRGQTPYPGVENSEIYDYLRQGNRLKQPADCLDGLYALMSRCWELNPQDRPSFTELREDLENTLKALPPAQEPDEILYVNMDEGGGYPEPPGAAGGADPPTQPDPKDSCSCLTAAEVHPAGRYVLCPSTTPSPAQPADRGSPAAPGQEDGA
The test is described as follows: flow cytometry on MDA-MB-231 cells (second experiment, FIG. 9); MDA-MB-231 cells; FIG. 9. As for the experimental part: (§1) Cells in a logarithmic growth phase were collected; the cell density was regulated to 5×10⁶ cells/mL; and pre-cooling was performed on ice. The antibodies 6G12M11, 6G12M21, 6G12M31, and 6G12M41 were diluted to 20 μg/ml with pre-cooled normal saline containing 2% FBS. 100 μl of cells were taken, and an equal volume of each of the foregoing diluted antibodies was added to the cells to react for 30 minutes at 4° C. in the dark. After the completion of reaction, the cells were washed twice with pre-cooled physiological saline containing 2% FBS (6000 rpm, 45 s). The secondary antibody PE Mouse Anti-Human IgG (BD Pharmingen) was diluted at 1:5 with pre-cooled physiological saline containing 2% FBS, and 100 μL of the secondary antibody was taken for resuspending the cells, with a reaction conducted for 30 minutes at 4° C. in the dark. After the reaction, the cells were washed twice with pre-cooled physiological saline containing 2% FBS (6000 rpm, 45 s). The cells were resuspended by using 400 μl of 1% paraformaldehyde. The binding of antibodies to cell surface antigens was analyzed by means of a flow cytometer (BD Calibur).
On the technique in general: A flow cytometer gives signals particle by particle.

In test [2] the target is T1, AXL on the surfaces of human tumour …. The test is described as follows: flow cytometry on 786-O cells (second experiment, FIG. 10); 786-O cells; FIG. 10. As for the experimental part: as §1
In test [3] the target is T2, TYRO3-Fc (ACRO Biosystems) (UniProt Q06418 41-428, limits assumed).
T2 construct: Bought reagent; also called TRYO3; not shown: Fc part
T2 sequence (looked up): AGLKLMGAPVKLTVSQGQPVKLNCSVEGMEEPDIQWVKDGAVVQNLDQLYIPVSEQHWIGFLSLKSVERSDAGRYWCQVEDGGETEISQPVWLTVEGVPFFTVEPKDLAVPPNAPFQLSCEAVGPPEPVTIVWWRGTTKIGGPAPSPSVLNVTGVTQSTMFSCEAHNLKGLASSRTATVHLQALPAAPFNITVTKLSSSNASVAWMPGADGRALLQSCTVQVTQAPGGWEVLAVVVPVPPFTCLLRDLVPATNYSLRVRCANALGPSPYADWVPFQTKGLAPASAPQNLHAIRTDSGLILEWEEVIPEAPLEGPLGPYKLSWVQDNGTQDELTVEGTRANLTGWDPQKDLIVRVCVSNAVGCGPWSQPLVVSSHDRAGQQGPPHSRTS
The test is described as follows: ELISA, TYRO3-Fc coated at 1 µg/ml, anti-human IgG Fab-HRP, OD450. As for the experimental part: TYRO3-Fc (ACRO Biosystems), MER-His (ACRO Biosystems), and AXL-His (Sino Biological Inc.) each were coated at 1 μg/ml on an ELISA strip, which was held at 4° C. overnight. After the ELISA strips were washed with PBST, 10% fetal bovine serum was added to the ELISA strip, which was blocked for 1 hour at 37° C. Antibodies […], 6G12M21, 6G12M31 and 6G12M41 were added to react at 37° C. for 1 hour. After the ELISA strips were washed with PBST, horseradish peroxidase-labeled goat anti-human IgG Fab secondary antibodies (Goat Anti-Human IgG (Fab′)₂ (HRP), Abcam) were added to react for 30 minutes at 37° C. The ELISA strips were washed 5 times with PBST, and patted and dried on absorbent paper to remove residual droplets as much as possible. 100 μl of TMB (eBioscience, #85-00-420) was added to each well, and the ELISA strips were held for 1.5 min at room temperature (20±5° C.) in the dark. 100 μl of 2N H₂SO₄ stop solution was added to each well to terminate substrate reaction. The OD value was read at 450 nm by a microplate reader to analyze the binding ability of antibodies to the proteins.
Background: In an ELISA, binding on a coated surface is turned into a signal by an enzyme label.

In test [4] the target is T1, AXL on the surfaces of human tumour …. The test is described as follows: flow cytometry on A549 cells. As for the experimental part:
as §1

Test [5] has the same target. The test is described as follows: flow cytometry on MDA-MB-231 cells. As for the experimental part: as §1
Test [6] has the same target. The test is described as follows: flow cytometry on 786-O cells. As for the experimental part: as §1
Test [7] shares this target. The test is described as follows: flow cytometry on MDA-MB-231 cells (second experiment, FIG. 9); MDA-MB-231 cells; second experiment, FIG. 9. As for the experimental part:
as §1

B1: antibody 6G12M31 (antibody, V domains shown)
VH: QVQLVQSGPGLVKPSQSLSLTCSVTGFSISSGYYWNWIRQFPGQKLEWMGYRSYDGSNNYDPSLKNRISITRDTSKNQFFLKLNSVTSEDTATYYCARGWLLHYTMDYWGQGTTVTVSS
VL: DIVMTQSPSSVSVTLGQSASISCRSSRSLLHSNGFTYLYWYLQKPGQSPQLLIYQMSNLASGVPDRFSGSGSGTDFTLKISRVEAEDVGVYYCGQNLELPLTFGGGTKLEIK
With B1, the EC50 is 0.6 µg/mL in test [1] and 0.53 µg/mL in test [2].

B2: antibody 6G12M11 (antibody, human IgG1, kappa, V domains shown)
VH: B1 VH with S23A, D61N
VL: EIVMTQSPSSVSVTLGQSASISCRSSRSLLHSNGFTYLYWYLQKPGQSPQLLIYQMSNLASGVPDRFSGSGSGTDFTLKISRVEAEDVGVYYCGQNLELPLTFGGGTKLEIKR
For the molecule B2, the binding result in test [3] is on record as “no binding (tested: about 1 µg/mL)”. The EC50 was 0.46 µg/mL in test [4], 0.59 µg/mL in test [5] and 0.43 µg/mL in test [6].

B3: antibody 6G12M21 (antibody, human IgG1, kappa, V domains shown)
VH: B1 VH with D61N
VL: B2 VL with E1D
Consider B3, for which the EC50 in test [4] worked out at 0.78 µg/mL; in test [7], 0.64 µg/mL; in test [5] it was 0.39 µg/mL; in test [6] it was 0.31 µg/mL.

B4: antibody 6G12M41 (antibody, V domains shown)
VH: B1 VH with D61G
VL: B1 VL
As to B4, the EC50 was 0.54 µg/mL in test [1] and 0.47 µg/mL in test [2].
